This is an account of results in patent US10487110B2, “Stabilized compounds having secondary structure motifs” (President and Fellows of Harvard College, priority 1999, dated 2019).

The nature of series [1]: Circular dichroism measure of helical content. The format is physicochemical. As to the method: Circular dichroism: Circular dichroism spectra were collected on a Jasco J-710 spectropolarimeter at 4° C. A typical sample was prepared by lyophilizing a measured volume of peptide solution and then resuspending it in 3 ml of 0.1% TFA in water to obtain a solution with a 280 nm absorbance of approximately 0.06 absorbance units. The sample was placed in a 1 cm CD cuvette and the ultraviolet absorbance was measured. The circular dichroism spectrum was measured and a baseline CD spectrum of 0.1% TFA in water was subtracted from it. The baseline subtracted CD spectrum was then normalized using the 280 nm absorbance.
(CD spectra are sensitive to the conformation of chiral molecules.)

The subject of series [2] is trypsin. The series can be described thus: Peptide trypsin digest (cleavage rate constants). The format is in vitro ADME. The note with it: 10% EtOH in 50 mM Tris pH 8.3, room temperature; for Cleavage rate constant, Unmetathesized: unmetathesized peptide; for Cleavage rate constant, Metathesized and hydrogenated: metathesized and hydrogenated peptide. As to the method: Peptide trypsin digest: A typical peptide trypsin digest experiment was performed by adding 5 μL of a 20× trypsin solution in 1 mM HCl to a 100 μL solution of peptide at 9 μM in 10% EtOH in 50 mM Tris at pH 8.3. The reaction was allowed to proceed at room temperature for 30 min at which time it was quenched by adding 100 μL of a 1% trifluoroacetic acid solution and frozen on dry ice. The sample was then thawed and injected into a reverse phase HPLC on a C18 column for quantitation at 280 nm. The cleavage rate constants were obtained by performing the digest experiments at multiple trypsin concentrations and fitting to a kinetic model that is first order in both enzyme and substrate concentration.

Series [3] can be described thus: Sedimentation equilibrium (analytical centrifugation). The note with it: conditions of the circular dichroism experiments, 4° C. The format is physicochemical. As to the method: Analytical centrifugation: Sedimentation Equilibrium Experiments were performed on a Beckman Optima XL-A analytical centrifuge. The samples were centrifuged at 35,000 RPM at 4° C. and monitored at 280 nm. The data was fit to a single species model. The sedimentation equilibrium experiments were run on the identical samples from which circular dichroism spectra were recorded.

The mark [4] stands for this setting: crosslinked versus corresponding uncrosslinked modified peptide.

Bridge positions count the residues as written; N and C are the ends. Square brackets hold non-standard residues; d marks the D form. R‑13 = (R)-2-(2'-pentenyl)alanine; R‑14 = (R)-2-(2′-hexenyl)alanine; S‑14 = (S)-2-(2′-hexenyl)alanine; S‑16 = (S)-2-(2′-octenyl)alanine

On to “Ac-EWAETAAAKFLAAHA-NH2 [Control, reference compound]”, for which the “helical content (α-helicity)” value in series [1] (circular dichroism, water containing 0.1% trifluoroacetic acid, 4° C.) is recorded as approximately 40%. Besides, the results for the “Cleavage rate constant, Unmetathesized” value in series [2] and in series [2] (listed as unmodified control peptide) were 2.39 M⁻¹ s⁻¹ and 2.38 M⁻¹ s⁻¹, respectively.

Turning to “Ri,i+7S(9): Ac-EWAEyAAAKFLzAHA-NH2 (SEQ ID NO: 2), (y,z) = (R-13,S-14), 9 carbon crosslink (Ac-EWAE[R‑13]AAAKFL[S‑14]AHA-NH2; staple 5-12)”, the “decrease of helical content following RCM” value in series [1] (setting [4]) is 21%. Further, the “Cleavage rate constant, Metathesized and hydrogenated” value in series [2] came to 0.37 M⁻¹ s⁻¹.

“Ri,i+7S(10): Ac-EWAEyAAAKFLzAHA-NH2 (SEQ ID NO: 2), (y,z) = (R-14,S-14), 10 carbon crosslink (Ac-EWAE[R‑14]AAAKFL[S‑14]AHA-NH2; staple 5-12)”: the “decrease of helical content following RCM” value in series [1] (setting [4]) is 12%. Besides, in series [2], the “Cleavage rate constant, Metathesized and hydrogenated” value came out at 0.34 M⁻¹ s⁻¹.

“Ri,i+7S(12): Ac-EWAEyAAAKFLzAHA-NH2 (SEQ ID NO: 2), (y,z) = (R-14,S-16), 12 carbon crosslink; cis and trans isomers (Ac-EWAE[R‑14]AAAKFL[S‑16]AHA-NH2; staple 5-12; also: cis and trans olefin isomers)”: the “Cleavage rate constant, Metathesized and hydrogenated” value in series [2] stood at 0.12 M⁻¹ s⁻¹.

Consider “Ri,i+7S(11): Ac-EWAEyAAAKFLzAHA-NH2 (SEQ ID NO: 2), (y,z) = (R-13,S-16), 11 carbon crosslink (Ac-EWAE[R‑13]AAAKFL[S‑16]AHA-NH2; staple 5-12)”, for which the “helix stabilization (result in words)” value in series [1] (circular dichroism) was “best helix stabilizer”. Also, in series [1] (crosslinked versus corresponding uncrosslinked modified peptide, for Ri,i+7S(12) cis and trans double bond isomers), the “increase of helical content following RCM” value was determined as 26%. The “increase of helical structure compared to unmodified control peptide” value in series [1] (versus unmodified control peptide) was 44%. Moreover, in series [3], the “oligomeric state by sedimentation equilibrium” value is listed as “monomeric”. In series [2], the “Cleavage rate constant, Metathesized and hydrogenated” value stood at 0.058 M⁻¹ s⁻¹; the “Cleavage rate constant, Unmetathesized” value amounted to 0.50 M⁻¹ s⁻¹.
